Laboratory results taken from article PMC7335327.
Blank lines part the entries; values can stand above or below the substance they belong to.

Legend:
[1] = target: biotinylated clamp loader complex ^bioχψτ3δδ’ (Escherichia coli K12) (UniProt P28905); test: SPR
[2] = target: DnaB (Escherichia coli) (UniProt P0ACB0); conditions: cited from earlier work
[3] = target: DnaB^F102C (Escherichia coli K12) (UniProt P0ACB0)
[4] = target: DnaB helicase, wild type (DnaB^wt) (Escherichia coli K12) (UniProt P0ACB0)
[5] = target: DnaB^F102C (Escherichia coli K12) (UniProt P0ACB0); test: cross-linking

Kd [1]: 2.6 nM
Substance: DnaB^wt•DnaGC complex (from UniProt P0ACB0 1-471)

Substance: DnaG (from UniProt P0ABS5)
Kd [2]: 2800 nM

fold less efficient interaction than with wild-type DnaB [3]: 200 fold
Substance: DnaGC, C-terminal helicase-binding domain of DnaG primase (domain or fragment)

fold weaker interaction than wild-type DnaGC [4]: 30 fold
disulfide crosslinking efficiency [5]: 100%
Substance: DnaGC^R568C/C492L (domain or fragment)
